Reference: the supplement of paper PMC10065799, “High-throughput profiling of sequence recognition by tyrosine kinases and SH2 domains using bacterial peptide display” (eLife, 2023)

Columns and labels:
c-Src SH2 = assay: SH2 binding enrichment of the phosphorylated peptide, bacterial display (enrichment ratio); higher = better substrate or ligand; peptides without Tyr show the background
SHP2-C SH2 = assay: as above
Grb2 SH2 = Grb2 SH2 (UniProt P62993); assay: as above
c-Src = assay: phosphorylation enrichment, bacterial display (enrichment ratio); higher = better substrate or ligand; peptides without Tyr show the background
AncSZ = assay: as above
Fyn = Fyn (UniProt P06241); assay: as above
FGFR3 = FGFR3 (UniProt P22607); assay: as above
Jak2 = Jak2 (UniProt O60674); assay: as above
Jak2, sequence (O60674 whole entry, looked up): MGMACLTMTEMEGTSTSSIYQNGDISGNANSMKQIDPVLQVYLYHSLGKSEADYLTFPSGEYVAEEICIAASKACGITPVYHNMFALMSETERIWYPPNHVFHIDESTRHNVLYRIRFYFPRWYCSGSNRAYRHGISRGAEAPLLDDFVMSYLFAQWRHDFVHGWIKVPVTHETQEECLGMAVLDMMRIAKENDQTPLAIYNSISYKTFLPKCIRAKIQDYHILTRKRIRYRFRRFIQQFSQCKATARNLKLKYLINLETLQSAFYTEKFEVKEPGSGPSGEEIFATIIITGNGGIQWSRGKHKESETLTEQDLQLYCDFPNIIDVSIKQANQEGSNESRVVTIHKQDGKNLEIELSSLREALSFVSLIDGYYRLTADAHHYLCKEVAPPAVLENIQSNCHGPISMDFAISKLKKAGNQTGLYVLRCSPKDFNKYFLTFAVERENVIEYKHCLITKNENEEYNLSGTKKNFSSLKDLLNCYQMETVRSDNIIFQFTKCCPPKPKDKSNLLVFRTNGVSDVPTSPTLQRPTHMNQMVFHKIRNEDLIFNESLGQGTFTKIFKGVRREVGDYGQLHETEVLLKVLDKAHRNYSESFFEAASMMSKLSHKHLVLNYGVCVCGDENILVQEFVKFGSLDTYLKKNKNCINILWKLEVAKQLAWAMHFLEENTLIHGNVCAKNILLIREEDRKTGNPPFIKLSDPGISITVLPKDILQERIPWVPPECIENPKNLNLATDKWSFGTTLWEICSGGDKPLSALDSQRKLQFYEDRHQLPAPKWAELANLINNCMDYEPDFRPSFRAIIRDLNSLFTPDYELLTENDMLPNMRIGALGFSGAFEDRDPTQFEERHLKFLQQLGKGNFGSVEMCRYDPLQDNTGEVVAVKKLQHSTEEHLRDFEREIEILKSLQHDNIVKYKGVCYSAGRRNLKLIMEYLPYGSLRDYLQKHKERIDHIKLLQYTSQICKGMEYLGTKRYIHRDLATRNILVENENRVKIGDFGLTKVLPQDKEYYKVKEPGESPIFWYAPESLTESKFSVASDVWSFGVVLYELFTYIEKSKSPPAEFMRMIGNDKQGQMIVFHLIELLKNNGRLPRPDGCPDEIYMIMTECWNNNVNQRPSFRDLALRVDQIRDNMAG

c-Abl (mouse) = assay: as above
EPHB1 = EPHB1 (UniProt P54762); assay: as above
EPHB1, sequence (P54762 whole entry, looked up): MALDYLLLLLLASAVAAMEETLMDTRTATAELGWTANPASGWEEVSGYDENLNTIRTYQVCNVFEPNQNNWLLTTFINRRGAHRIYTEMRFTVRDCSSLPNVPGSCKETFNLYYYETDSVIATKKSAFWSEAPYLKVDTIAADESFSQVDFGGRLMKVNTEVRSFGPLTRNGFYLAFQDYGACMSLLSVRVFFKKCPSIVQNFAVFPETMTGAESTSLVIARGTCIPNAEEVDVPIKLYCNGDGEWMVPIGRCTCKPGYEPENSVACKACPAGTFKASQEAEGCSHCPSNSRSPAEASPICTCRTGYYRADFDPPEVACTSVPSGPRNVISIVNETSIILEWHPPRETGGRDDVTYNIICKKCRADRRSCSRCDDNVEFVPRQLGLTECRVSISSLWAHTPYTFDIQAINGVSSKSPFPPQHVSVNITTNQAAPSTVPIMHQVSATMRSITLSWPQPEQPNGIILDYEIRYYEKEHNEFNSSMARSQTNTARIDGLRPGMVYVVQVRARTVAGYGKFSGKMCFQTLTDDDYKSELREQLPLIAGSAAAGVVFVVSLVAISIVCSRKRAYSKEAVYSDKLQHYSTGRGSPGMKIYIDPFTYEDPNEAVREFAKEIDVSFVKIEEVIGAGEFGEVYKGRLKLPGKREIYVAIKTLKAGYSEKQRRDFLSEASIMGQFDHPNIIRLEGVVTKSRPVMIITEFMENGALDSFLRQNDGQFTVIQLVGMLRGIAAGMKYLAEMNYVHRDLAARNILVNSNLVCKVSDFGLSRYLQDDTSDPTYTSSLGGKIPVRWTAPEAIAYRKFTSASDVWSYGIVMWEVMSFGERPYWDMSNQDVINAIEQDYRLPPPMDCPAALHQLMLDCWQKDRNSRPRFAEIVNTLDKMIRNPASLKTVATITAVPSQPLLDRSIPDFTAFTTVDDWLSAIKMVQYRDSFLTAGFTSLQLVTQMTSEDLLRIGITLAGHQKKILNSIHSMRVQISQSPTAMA

Fes = Fes (UniProt P07332); assay: as above
Fes, sequence (P07332 whole entry, looked up): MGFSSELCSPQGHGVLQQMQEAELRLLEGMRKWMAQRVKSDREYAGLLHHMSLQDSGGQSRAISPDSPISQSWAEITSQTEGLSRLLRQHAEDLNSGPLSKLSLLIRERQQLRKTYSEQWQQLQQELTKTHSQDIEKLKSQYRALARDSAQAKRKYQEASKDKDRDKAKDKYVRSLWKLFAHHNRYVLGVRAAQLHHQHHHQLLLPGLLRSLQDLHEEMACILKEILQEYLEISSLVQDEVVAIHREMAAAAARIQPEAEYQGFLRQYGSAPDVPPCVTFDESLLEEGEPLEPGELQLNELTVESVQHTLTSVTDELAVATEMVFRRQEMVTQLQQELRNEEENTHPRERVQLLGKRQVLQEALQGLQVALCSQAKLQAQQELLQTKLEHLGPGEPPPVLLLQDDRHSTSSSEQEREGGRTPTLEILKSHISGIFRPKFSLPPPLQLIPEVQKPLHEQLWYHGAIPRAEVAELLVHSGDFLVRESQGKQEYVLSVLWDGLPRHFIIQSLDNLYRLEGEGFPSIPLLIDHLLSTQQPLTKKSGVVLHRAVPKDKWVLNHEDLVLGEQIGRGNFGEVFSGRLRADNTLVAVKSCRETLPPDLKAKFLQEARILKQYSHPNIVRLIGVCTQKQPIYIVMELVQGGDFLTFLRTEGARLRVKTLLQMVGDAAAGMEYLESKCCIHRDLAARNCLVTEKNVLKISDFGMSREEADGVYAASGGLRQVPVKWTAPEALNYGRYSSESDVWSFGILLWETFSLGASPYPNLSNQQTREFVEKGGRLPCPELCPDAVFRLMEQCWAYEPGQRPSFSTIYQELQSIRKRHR

FGFR1 = FGFR1 (UniProt P11362); assay: as above
FGFR1, sequence (P11362 whole entry, looked up): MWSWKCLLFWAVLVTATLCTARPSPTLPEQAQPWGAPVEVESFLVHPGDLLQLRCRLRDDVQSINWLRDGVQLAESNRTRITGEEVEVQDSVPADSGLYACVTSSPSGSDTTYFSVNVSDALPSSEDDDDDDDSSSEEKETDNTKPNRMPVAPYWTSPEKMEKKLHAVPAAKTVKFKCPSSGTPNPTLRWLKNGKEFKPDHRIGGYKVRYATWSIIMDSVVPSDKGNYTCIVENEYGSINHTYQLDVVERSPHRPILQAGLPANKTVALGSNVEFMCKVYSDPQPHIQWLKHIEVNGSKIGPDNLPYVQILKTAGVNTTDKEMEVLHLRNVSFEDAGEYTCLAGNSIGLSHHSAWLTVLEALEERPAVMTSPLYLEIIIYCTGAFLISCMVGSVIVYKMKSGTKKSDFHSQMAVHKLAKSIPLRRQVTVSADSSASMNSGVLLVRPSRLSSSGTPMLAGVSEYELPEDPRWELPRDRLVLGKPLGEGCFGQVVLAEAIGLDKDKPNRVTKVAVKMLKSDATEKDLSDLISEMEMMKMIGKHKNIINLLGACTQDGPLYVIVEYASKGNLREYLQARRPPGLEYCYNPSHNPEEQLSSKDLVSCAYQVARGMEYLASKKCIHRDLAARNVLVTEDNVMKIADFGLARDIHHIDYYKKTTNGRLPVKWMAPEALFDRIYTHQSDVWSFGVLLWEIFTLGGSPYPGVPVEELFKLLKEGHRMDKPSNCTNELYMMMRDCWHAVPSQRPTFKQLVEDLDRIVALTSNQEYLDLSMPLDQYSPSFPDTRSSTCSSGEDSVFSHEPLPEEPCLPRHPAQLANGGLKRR

MERTK = MERTK (UniProt Q12866); assay: as above
Fer (mouse) = assay: as above
EPHB2 = EPHB2 (UniProt P29323); assay: as above
EPHB2, sequence (P29323 whole entry, looked up): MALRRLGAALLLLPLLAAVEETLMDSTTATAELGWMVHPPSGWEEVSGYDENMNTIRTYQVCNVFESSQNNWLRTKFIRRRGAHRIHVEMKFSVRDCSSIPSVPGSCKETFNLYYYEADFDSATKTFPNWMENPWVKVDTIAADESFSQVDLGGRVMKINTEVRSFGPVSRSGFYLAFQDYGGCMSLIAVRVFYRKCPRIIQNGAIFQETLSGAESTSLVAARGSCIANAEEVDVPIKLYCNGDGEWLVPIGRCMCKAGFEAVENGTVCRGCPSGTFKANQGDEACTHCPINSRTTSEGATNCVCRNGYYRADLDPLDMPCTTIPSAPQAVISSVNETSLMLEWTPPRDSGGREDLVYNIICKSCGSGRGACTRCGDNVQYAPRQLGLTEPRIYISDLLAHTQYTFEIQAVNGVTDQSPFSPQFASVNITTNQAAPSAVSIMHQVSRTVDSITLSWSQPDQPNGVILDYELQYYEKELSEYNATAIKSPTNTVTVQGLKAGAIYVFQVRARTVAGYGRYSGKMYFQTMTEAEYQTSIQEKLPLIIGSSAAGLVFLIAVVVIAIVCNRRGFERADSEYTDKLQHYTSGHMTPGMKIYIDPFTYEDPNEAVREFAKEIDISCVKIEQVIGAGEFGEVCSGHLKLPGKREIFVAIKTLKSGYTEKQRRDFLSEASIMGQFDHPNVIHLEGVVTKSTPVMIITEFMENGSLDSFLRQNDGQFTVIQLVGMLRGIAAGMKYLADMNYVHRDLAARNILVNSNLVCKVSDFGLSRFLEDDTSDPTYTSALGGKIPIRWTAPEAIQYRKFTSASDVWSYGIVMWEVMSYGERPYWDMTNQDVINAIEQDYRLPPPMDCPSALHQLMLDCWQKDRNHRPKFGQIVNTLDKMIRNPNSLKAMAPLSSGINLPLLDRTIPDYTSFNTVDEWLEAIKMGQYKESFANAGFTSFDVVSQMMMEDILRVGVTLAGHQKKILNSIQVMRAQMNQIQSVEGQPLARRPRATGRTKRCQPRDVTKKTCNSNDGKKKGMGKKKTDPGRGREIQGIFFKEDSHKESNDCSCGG

Hck = Hck (UniProt P08631); assay: as above
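Wherever SH2 binding enrichment of the phosphorylated peptide, bacterial display is given: peptide library displayed on the E. coli surface as eCPX fusions, selected cells deep-sequenced, score is each peptide's frequency after selection divided by its frequency in the input.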
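Wherever phosphorylation enrichment, bacterial display is given: 11-residue human phosphosite peptides and single-mutation variants displayed on the E. coli surface, counted by deep sequencing, each peptide's frequency after selection divided by its frequency in the unselected input library; frequency after pTyr selection over input frequency; kinase dosed for 20-30% of maximal phosphorylation in three min.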

Grb2 SH2, sequence (P62993 whole entry, looked up): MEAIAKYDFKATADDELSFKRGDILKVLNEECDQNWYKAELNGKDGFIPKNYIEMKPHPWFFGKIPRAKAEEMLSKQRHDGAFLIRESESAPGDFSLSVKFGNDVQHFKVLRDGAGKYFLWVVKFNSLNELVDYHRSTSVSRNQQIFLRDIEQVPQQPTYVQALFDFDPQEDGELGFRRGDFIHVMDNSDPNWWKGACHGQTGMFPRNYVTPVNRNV

| Sequence | SH2 binding enrichment (c-Src SH2) | SH2 binding enrichment (SHP2-C SH2) | SH2 binding enrichment (Grb2 SH2) | phosphorylation enrichment (c-Src) | phosphorylation enrichment (AncSZ) | phosphorylation enrichment (Fyn) | phosphorylation enrichment (FGFR3) | phosphorylation enrichment (Jak2) | phosphorylation enrichment (c-Abl (mouse)) | phosphorylation enrichment (EPHB1) | phosphorylation enrichment (Fes) | phosphorylation enrichment (FGFR1) | phosphorylation enrichment (MERTK) | phosphorylation enrichment (Fer (mouse)) | phosphorylation enrichment (EPHB2) | phosphorylation enrichment (Hck) |
| --- | --- | --- | --- | --- | --- | --- | --- | --- | --- | --- | --- | --- | --- | --- | --- | --- |
| ERCAQYKKDVA [ALDOA_Y138_G142V] | 0.585 | 0.976 | 1.07 | 0.491 | 0.726 | 0.596 | 0.604 | 0.65 | 0.624 | 0.527 | 1.05 | 0.579 | 0.385 | 0.45 | 0.607 | 0.525 |
| ERDFTYEELLN [EIF2S2_Y176_YF] | 0.69 | 0.715 | 1.14 | 0.675 | 1.23 | 0.678 | 0.692 | 1.01 | 0.66 | 0.628 | 1.12 | 0.527 | 0.492 | 0.69 | 0.515 | 0.855 |
| EREFKYGAHNH [OAT_Y50_Y55H_YF] | 0.465 | 0.856 | 0.788 | 0.319 | 0.524 | 0.307 | 0.368 | 0.376 | 0.44 | 0.474 | 0.545 | 0.336 | 0.439 | 0.441 | 0.228 | 0.29 |
| ERFSFYGMKAV [SLC15A2_Y61_YF] | 0.427 | 0.68 | 0.796 | 0.455 | 1.08 | 0.439 | 0.84 | 1.02 | 0.812 | 0.647 | 1.56 | 0.505 | 0.383 | 0.554 | 0.605 | 0.546 |
| ERMKVYVPTGF [EPHX1_Y393] | 0.56 | 0.768 | 0.761 | 0.563 | 0.658 | 0.515 | 0.539 | 0.557 | 0.672 | 0.407 | 0.818 | 0.513 | 0.453 | 0.562 | 0.522 | 0.472 |
| ERNTVYSSSGV [NELL2_Y350] | 0.485 | 0.741 | 0.952 | 0.666 | 0.539 | 0.544 | 0.679 | 0.405 | 0.521 | 0.502 | 0.474 | 0.372 | 0.39 | 0.359 | 0.379 | 0.768 |
| ESDGAYIHRMQ [CCDC137_Y125] | 0.541 | 0.656 | 0.857 | 0.403 | 0.726 | 0.365 | 0.514 | 0.824 | 0.703 | 0.408 | 0.873 | 0.419 | 0.406 | 0.414 | 0.493 | 0.378 |
| ESDYPYSSSYE [SRPK2_Y427_T426P] | 0.829 | 0.395 | 0.832 | 0.784 | 1.19 | 0.593 | 0.789 | 0.71 | 0.481 | 0.589 | 1.18 | 0.668 | 0.513 | 0.499 | 0.649 | 0.581 |
| ESKAGYRAPRS [CLDN7_Y195_V197A] | 0.542 | 0.74 | 1.04 | 0.349 | 0.536 | 0.415 | 0.483 | 0.593 | 0.402 | 0.35 | 0.519 | 0.425 | 0.34 | 0.339 | 0.415 | 0.404 |
| ETAVHYIHDGI [GATD3A_Y250_L248V] | 0.504 | 0.465 | 0.678 | 0.461 | 0.631 | 0.389 | 0.543 | 0.649 | 0.606 | 0.419 | 0.726 | 0.445 | 0.453 | 0.426 | 0.43 | 0.399 |
| ETMNKYHLSGR [MYEF2_Y164_D165H] | 0.426 | 0.627 | 0.667 | 0.375 | 0.539 | 0.343 | 0.367 | 0.422 | 0.398 | 0.332 | 0.53 | 0.432 | 0.385 | 0.357 | 0.355 | 0.467 |
| EVASVYQSFQP [MAVS_Y92_YF] | 0.507 | 0.661 | 0.961 | 8.85 | 1.22 | 13.6 | 0.991 | 1.06 | 2.19 | 0.785 | 1.2 | 0.604 | 2.03 | 5.55 | 0.846 | 11 |
| EVNETYVPKEF [ALB_Y521_D518N] | 0.404 | 0.501 | 0.759 | 0.523 | 1.19 | 0.564 | 0.796 | 1.19 | 0.851 | 0.584 | 1.26 | 0.524 | 0.477 | 0.518 | 0.543 | 0.534 |
| EVNQDYGLDPK [FH_Y110] | 0.508 | 0.581 | 0.807 | 0.466 | 1.31 | 0.604 | 0.837 | 1.17 | 0.765 | 0.631 | 1.29 | 0.572 | 0.443 | 0.519 | 0.546 | 0.596 |
| EVQKNYEHLFK [PAM16_Y77] | 0.634 | 0.77 | 0.897 | 0.359 | 0.706 | 0.398 | 0.517 | 0.8 | 0.632 | 0.57 | 0.715 | 0.4 | 0.318 | 0.436 | 0.479 | 0.438 |
| EYITRYIASLK [PSMA7_Y110] | 0.57 | 1.46 | 1.05 | 0.477 | 0.708 | 0.416 | 0.415 | 0.526 | 0.569 | 0.498 | 0.717 | 0.456 | 0.499 | 0.414 | 0.416 | 0.51 |
| EYQLPYYNMVP [BMPR1A_Y457] | 3.74 | 1.87 | 9.58 | 5.13 | 6.15 | 3.83 | 11.9 | 9.58 | 3 | 2.81 | 1.12 | 14.1 | 7.06 | 5.56 | 3.64 | 3.23 |

| Sequence | SH2 binding enrichment (c-Src SH2) | SH2 binding enrichment (SHP2-C SH2) | SH2 binding enrichment (Grb2 SH2) | phosphorylation enrichment (c-Src) | phosphorylation enrichment (AncSZ) | phosphorylation enrichment (Fyn) | phosphorylation enrichment (FGFR3) | phosphorylation enrichment (Jak2) | phosphorylation enrichment (c-Abl (mouse)) | phosphorylation enrichment (EPHB1) | phosphorylation enrichment (Fes) | phosphorylation enrichment (FGFR1) | phosphorylation enrichment (MERTK) | phosphorylation enrichment (Fer (mouse)) | phosphorylation enrichment (EPHB2) | phosphorylation enrichment (Hck) |
| --- | --- | --- | --- | --- | --- | --- | --- | --- | --- | --- | --- | --- | --- | --- | --- | --- |
| FAANFYKLLGN [ROR2_Y646_D644N_YF] | 0.468 | 0.453 | 0.676 | 0.46 | 0.898 | 0.365 | 0.512 | 0.924 | 0.726 | 0.476 | 0.986 | 0.425 | 0.419 | 0.347 | 0.462 | 0.464 |
| FADIAYNYRRG [PAH_Y166_H170R] | 0.427 | 0.583 | 0.699 | 0.511 | 0.638 | 0.466 | 0.449 | 0.529 | 0.502 | 0.493 | 0.702 | 0.39 | 0.429 | 0.329 | 0.458 | 0.452 |
| FAELVYTVFWH [ASS1_Y322_G324V] | 0.713 | 1.05 | 1.1 | 7.17 | 2.15 | 7.64 | 3.34 | 2.27 | 12.5 | 2.33 | 1.63 | 4.39 | 8.06 | 6.19 | 2.94 | 5.47 |
| FARNCYVAGQY [G6PD_Y107_S106C] | 0.469 | 0.707 | 0.709 | 0.469 | 1.08 | 0.437 | 0.641 | 0.889 | 0.83 | 0.55 | 1.07 | 0.443 | 0.49 | 0.511 | 0.526 | 0.524 |
| FASAEYQEALS [GALNS_Y461] | 0.569 | 0.598 | 0.734 | 0.485 | 0.949 | 0.454 | 0.618 | 0.759 | 0.505 | 0.454 | 0.858 | 0.482 | 0.348 | 0.369 | 0.466 | 0.481 |
| FDDIANIRKTL [PIK3CA_Y1021_Y1021N] | 0.547 | 0.635 | 0.858 | 0.416 | 0.873 | 0.465 | 0.513 | 0.496 | 0.813 | 0.525 | 0.746 | 0.652 | 0.386 | 0.459 | 0.452 | 0.275 |
| FDDIAYIRKAL [PIK3CA_Y1021_T1025A] | 0.39 | 0.607 | 0.787 | 0.436 | 0.708 | 0.427 | 0.461 | 0.52 | 0.5 | 0.361 | 0.685 | 0.358 | 0.454 | 0.387 | 0.448 | 0.495 |
| FDDIAYIRKTL [PIK3CA_Y1021] | 0.483 | 0.565 | 0.683 | 0.449 | 0.75 | 0.514 | 0.496 | 0.835 | 0.62 | 0.469 | 0.878 | 0.456 | 0.474 | 0.411 | 0.481 | 0.469 |
| FFHKFYNKSED [RYR1_Y4864_R4861H] | 0.521 | 0.746 | 0.741 | 0.588 | 1 | 0.558 | 0.948 | 1.09 | 0.72 | 0.727 | 1.43 | 0.665 | 0.761 | 0.497 | 0.719 | 0.616 |
| FFPANYVAPMT [GRAP2_Y324_L319F] | 0.6 | 0.883 | 0.814 | 0.449 | 0.924 | 0.471 | 0.646 | 0.865 | 1.36 | 4.84 | 0.826 | 0.65 | 0.768 | 0.41 | 2.17 | 0.469 |
| FFTEEYVRDHP [DOCK2_Y1555] | 0.553 | 0.916 | 0.944 | 0.457 | 0.989 | 0.44 | 0.766 | 1.19 | 0.657 | 0.486 | 0.915 | 0.481 | 0.381 | 0.452 | 0.461 | 0.485 |
| FGAHKYHPLPV [OAT_Y55_N54K_YF] | 1.31 | 1.26 | 1.46 | 0.377 | 0.497 | 0.309 | 0.544 | 0.424 | 0.443 | 0.375 | 0.677 | 0.397 | 0.376 | 0.441 | 0.468 | 0.474 |
| FGDTSYIPFRD [CDC14C_Y132_P131S] | 0.536 | 0.599 | 0.8 | 0.518 | 0.659 | 0.443 | 0.496 | 0.676 | 0.546 | 0.424 | 0.672 | 0.517 | 0.452 | 0.391 | 0.533 | 0.443 |
| FGMSSYITRED [FNDC3B_Y180_T179S_YF] | 0.501 | 0.937 | 0.715 | 0.442 | 0.84 | 0.59 | 0.693 | 0.559 | 0.579 | 0.594 | 0.891 | 0.556 | 0.527 | 0.544 | 0.653 | 0.536 |
| FGSGNYNDFGN [HNRNPA2B1_Y300_YF] | 0.683 | 0.408 | 0.975 | 0.419 | 0.941 | 0.347 | 0.505 | 0.726 | 0.876 | 1.97 | 0.995 | 0.378 | 0.363 | 0.362 | 0.544 | 0.4 |
| FGSRLYKYAFK [FANCD2_Y458_L456R] | 0.77 | 0.628 | 1.09 | 0.318 | 0.593 | 0.341 | 0.407 | 0.488 | 0.5 | 0.363 | 0.715 | 0.344 | 0.342 | 0.473 | 0.429 | 0.399 |
